In US6479250 (Amgen, dated 2002):

Legend:
[1] = molecular target: T1, eck receptor extracellular domain (eck-x), soluble, expressed in CHO cells (human, UniProt P29317 24-537); test: BIAcore, EBP on immobilized eck-x
T1 construct: extracellular domain; The construct ends at Asn534 (numbering of the eck cDNA of Lindberg et al.); Immobilized on BIAcore chips or on CNBr-Sepharose; also called soluble eck receptor; recombinant human Eck extracellular domain

[2] = molecular target: T2, eck receptor (p130^eck), full length, on LIM 2405 cells or on CHO 19.32 cells transfected with the full … (human, UniProt P29317 24-976); test: Scatchard analysis of steady-state binding of 125I-rEBP to LIM2405 cells, 0° C.
T2 construct: whole, on cells; also called EBP receptors
T2 sequence (P29317 24-976): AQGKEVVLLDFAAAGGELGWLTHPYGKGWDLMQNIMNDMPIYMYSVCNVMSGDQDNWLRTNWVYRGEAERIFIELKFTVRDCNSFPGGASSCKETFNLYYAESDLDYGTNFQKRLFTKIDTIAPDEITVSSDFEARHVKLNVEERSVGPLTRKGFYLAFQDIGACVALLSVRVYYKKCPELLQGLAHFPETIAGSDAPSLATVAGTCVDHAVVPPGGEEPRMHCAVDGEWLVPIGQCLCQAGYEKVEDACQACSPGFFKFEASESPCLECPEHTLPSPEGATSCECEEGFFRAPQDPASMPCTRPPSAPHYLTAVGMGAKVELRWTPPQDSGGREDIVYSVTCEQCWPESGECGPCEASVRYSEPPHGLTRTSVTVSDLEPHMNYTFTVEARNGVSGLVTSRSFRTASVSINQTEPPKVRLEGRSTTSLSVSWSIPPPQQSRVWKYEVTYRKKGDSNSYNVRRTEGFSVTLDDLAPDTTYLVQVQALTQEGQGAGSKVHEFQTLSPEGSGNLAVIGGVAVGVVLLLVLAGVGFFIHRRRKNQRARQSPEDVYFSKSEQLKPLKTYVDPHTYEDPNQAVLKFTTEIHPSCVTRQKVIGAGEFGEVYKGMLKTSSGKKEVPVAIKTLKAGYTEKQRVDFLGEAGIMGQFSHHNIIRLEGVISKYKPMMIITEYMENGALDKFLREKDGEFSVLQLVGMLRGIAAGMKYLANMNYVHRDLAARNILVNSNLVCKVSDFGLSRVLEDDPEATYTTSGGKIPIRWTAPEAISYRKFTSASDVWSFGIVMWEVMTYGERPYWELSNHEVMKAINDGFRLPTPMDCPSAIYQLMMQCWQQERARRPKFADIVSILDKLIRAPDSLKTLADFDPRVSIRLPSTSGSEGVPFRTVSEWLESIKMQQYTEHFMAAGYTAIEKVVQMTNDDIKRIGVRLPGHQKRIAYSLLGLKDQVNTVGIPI
Method: Nonspecific binding was determined from parallel reactions containing a 50 fold excess of unlabeled EBP.

rat Eck receptor (rat) = rat Eck receptor (rat) (UniProt D3ZBN3); test: cell-based or functional assay
Chain of rat Eck receptor (rat) (D3ZBN3 entry or part of it limits assumed, form in doubt): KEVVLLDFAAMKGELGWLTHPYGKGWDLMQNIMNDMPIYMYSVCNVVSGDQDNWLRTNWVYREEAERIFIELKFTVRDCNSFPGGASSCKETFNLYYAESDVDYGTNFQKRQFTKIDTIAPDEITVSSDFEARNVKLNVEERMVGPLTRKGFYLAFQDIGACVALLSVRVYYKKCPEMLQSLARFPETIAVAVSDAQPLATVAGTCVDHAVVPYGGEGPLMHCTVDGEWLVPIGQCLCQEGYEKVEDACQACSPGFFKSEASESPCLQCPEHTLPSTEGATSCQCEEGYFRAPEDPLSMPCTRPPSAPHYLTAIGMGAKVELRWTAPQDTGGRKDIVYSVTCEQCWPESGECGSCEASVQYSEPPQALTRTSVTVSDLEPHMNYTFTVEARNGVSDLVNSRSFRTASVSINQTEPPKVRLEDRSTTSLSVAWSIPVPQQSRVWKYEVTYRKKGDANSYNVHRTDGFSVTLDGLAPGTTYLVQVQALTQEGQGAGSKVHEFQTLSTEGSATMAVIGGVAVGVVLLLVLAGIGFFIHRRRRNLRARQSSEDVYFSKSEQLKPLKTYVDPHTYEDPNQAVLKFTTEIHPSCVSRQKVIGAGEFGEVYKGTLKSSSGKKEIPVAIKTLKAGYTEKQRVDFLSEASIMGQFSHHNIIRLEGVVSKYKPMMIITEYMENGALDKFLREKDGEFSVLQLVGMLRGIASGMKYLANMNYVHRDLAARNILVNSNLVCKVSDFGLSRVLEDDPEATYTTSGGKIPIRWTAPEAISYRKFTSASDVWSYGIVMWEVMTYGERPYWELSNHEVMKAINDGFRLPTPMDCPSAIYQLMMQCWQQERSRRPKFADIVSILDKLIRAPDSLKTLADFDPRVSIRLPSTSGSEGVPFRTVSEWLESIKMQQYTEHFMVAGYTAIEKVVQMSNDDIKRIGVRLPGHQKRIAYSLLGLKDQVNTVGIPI

T1 sequence (P29317 24-537): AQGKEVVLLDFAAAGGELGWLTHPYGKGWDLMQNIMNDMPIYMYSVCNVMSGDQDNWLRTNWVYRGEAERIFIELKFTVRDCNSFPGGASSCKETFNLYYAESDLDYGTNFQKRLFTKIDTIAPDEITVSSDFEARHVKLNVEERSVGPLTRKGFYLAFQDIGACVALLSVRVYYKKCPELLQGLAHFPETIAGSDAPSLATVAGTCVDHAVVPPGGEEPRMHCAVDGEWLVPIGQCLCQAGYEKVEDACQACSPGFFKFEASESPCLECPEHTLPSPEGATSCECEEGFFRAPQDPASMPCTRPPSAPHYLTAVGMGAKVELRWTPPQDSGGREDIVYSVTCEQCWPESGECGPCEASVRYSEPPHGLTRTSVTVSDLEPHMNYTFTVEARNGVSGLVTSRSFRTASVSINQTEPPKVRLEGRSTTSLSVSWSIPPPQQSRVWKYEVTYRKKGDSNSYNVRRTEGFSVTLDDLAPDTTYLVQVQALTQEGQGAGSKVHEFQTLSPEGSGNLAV

- Kd [1]: ~24 nM
- Kd [2]: 28 nM
B1: recombinant EBP from CHO cells transfected with the EBP gene (ligand)
chain: DRHTVFWNSSNPKFRNEDYTIHVQLNDYVDIICPHYEDHSVADAAMEQYILYLVEHEEYQLCQPQSKDQVRWQCNRPSAKHGPEKLSEKFQRFTPFTLGKEFKEGHSYYYISKPIHQHEDRCLRLKVTVSGKITHSPQAHVNPQEKRLAA
notes: the entry may begin with a leader at negative positions; also called CHO rEBP; rEBP
- ED50 of survival of embryonic rat spinal cord neurons after 9 days in culture (rat Eck receptor (rat)): < 10 µg/mL
- enhancement of survival of embryonic rat spinal cord neurons after 9 days in culture (rat Eck receptor (rat)): < 84%
